Results: the RNAGym collection of RNA variant scans (doi:10.7554/elife.90254)

B1: OR4K15 (parent)
chain: GUUAACGGUCAUAGGCCAUGGAAACUAGGAGCACCAUUUCGCUGCCAGUGAAGAAAUGAACAAAGAAAAUCUGGGCCAGGCAGGCAUCAAAAGAAAUAGUCUUGCGCUCAACCAGAAAGUCUGUAAUCAUUUUAAGGGUA

Variants of: B1
Experiment: self-cleavage, relative activity (ratio to wild type); higher = more cleavage; in vitro, sequencing; the parent is a self-cleaving ribozyme

Variant | self-cleavage
GUUAACGGUCAUAGGCCAAGGAAACUAGGAGCACCAUUUCGCUGCCAGUGAAGAAAUGAACAAAGAAAAUCUGGGCCAGGCAGGCAUCAAAAGAAAUAGUCUUGCGCUCAACCAGAAAGUCUGUAACCAUUUUAAGGGUA [U19A U127C] | 0.92
GUUAACGGUCAUAGGCCAAGGAAACUAGGAGCACCAUUUCGCUGCCAGCGAAGAAAUGAACAAAGAAAAUCUGGGCCAGGCAGGCAUCAAAAGAAAUAGUCUUGCGCUCAACCAGAAAGUCUGUAAUCAUUUUAAGGGUA [U19A U49C] | 1.38
GUUAACGGUCAUAGGCCACGGAAACUGGGAGCACCAUUUCGCUGCCAGUGAAGAAAUGAACAAAGAAAAUCUGGGCCAGGCAGGCAUCAAAAGAAAUAGUCUUGCGCUCAACCAGAAAGUCUGUAAUCAUUUUAAGGGUA [U19C A27G] | 0.89
GUUAACGGUCAUAGGCCACGGAAACUAGGAGCACCAUUUCGCUGCCAGUGAAGACAUGAACAAAGAAAAUCUGGGCCAGGCAGGCAUCAAAAGAAAUAGUCUUGCGCUCAACCAGAAAGUCUGUAAUCAUUUUAAGGGUA [U19C A55C] | 1.89
GUUAACGGUCAUAGGCCAAGGAAACUAGGAGCACCAUUUCGCUGCCAGUGAAGAAAUGAACAAAGAAAAUCUGGGCCAGGCAGGCAUCAAAAGAAAUAGUCUUGCGCUCAACCAGAAAGUCUGUAAUCAUCUUAAGGGUA [U19A U131C] | 1.46
GUUAACGGUCAUAGGCCAAGGAAACUAGGAGCACCAUUUCGCUGCCAGUGAAGAAAUGAACAAAGAAAAUCUGGGCCAGGCAGGCAUCAAAAGAAAUAGUCUUGCGCUCAACCAGAAAGUCUGUAAUCAUGUUAAGGGUA [U19A U131G] | 2.03
GUUAACGGUCAUAGGCCAAGGAAACUAGGAGCACCAUUUCGCUGCCAGUGAAGAAAUGAACAAAGAAAAUCUGGGCCAGGCAGGCAUCAAAAGAAAUAGUCUUGCGCUCAACCAGAGAGUCUGUAAUCAUUUUAAGGGUA [U19A A117G] | 1.57
GUUAACGGUCAUAGGCCAAGGAAACUAGGAGCACCAUUUCGCUGCCAGUGAAGAAAUGAACAAAGAAAAUCUGGGCCAGGCAGGCAUCAAAAGAAAUAGUCUUGCGCUCAACCAGAUAGUCUGUAAUCAUUUUAAGGGUA [U19A A117U] | 0.55
GUUAACGGUCAUAGGCCAAGGAAACUAGGAGCACCAUUUCGCUGCCAAUGAAGAAAUGAACAAAGAAAAUCUGGGCCAGGCAGGCAUCAAAAGAAAUAGUCUUGCGCUCAACCAGAAAGUCUGUAAUCAUUUUAAGGGUA [U19A G48A] | 1.35
GUUAACGGUCAUAGGCCAAGGAAACUAGGAGCACCAUUUCGCUGCCAGUGAAGAAAUGAACAAAGAAAAUCUGGGCCAGGCAGGCAUCAAAAGAAAUAGUCUUGCGCUCAACCAGAAAGUCUGUAAUCAUUUUAAGGGUG [U19A A140G] | 1.75
GUUAACGGUCAUAGGCCAAGGAAACUAGGAGCACCAUUUCGCUGCCAGUGAAGAAAUGAACAAAGAAAAUCUGGGCCAGGCAGGCAUCAAAAGAAAUAGUCUUGCGCUUAACCAGAAAGUCUGUAAUCAUUUUAAGGGUA [U19A C109U] | 0.16
GUUAACGGUCAUAGGCCACGGAAACUAGGAGCACCAUUUCGCUGCCAGUGAAGCAAUGAACAAAGAAAAUCUGGGCCAGGCAGGCAUCAAAAGAAAUAGUCUUGCGCUCAACCAGAAAGUCUGUAAUCAUUUUAAGGGUA [U19C A54C] | 1.2
GUUAACGGUCAUAGGCCACGGAAACUAGGAGCACCAUUUCGCUGCCAGUGAAGGAAUGAACAAAGAAAAUCUGGGCCAGGCAGGCAUCAAAAGAAAUAGUCUUGCGCUCAACCAGAAAGUCUGUAAUCAUUUUAAGGGUA [U19C A54G] | 1.21
GUUAACGGUCAUAGGCCACGGAAACUAGGGGCACCAUUUCGCUGCCAGUGAAGAAAUGAACAAAGAAAAUCUGGGCCAGGCAGGCAUCAAAAGAAAUAGUCUUGCGCUCAACCAGAAAGUCUGUAAUCAUUUUAAGGGUA [U19C A30G] | 0.94
GUUAACGGUCAUAGGCCAAGGAAACUAGGAGCACCAUUUCGCUGCCAGUGAAGAAAUGAACAAAGAAAAUCUGGGCCAGGCAGGCAUCAAAAGAAAUAGCCUUGCGCUCAACCAGAAAGUCUGUAAUCAUUUUAAGGGUA [U19A U100C] | 1.68
GUUAACGGUCAUAGGCCAAGGAAACUAGGAGCACCAUUUCGCUACCAGUGAAGAAAUGAACAAAGAAAAUCUGGGCCAGGCAGGCAUCAAAAGAAAUAGUCUUGCGCUCAACCAGAAAGUCUGUAAUCAUUUUAAGGGUA [U19A G44A] | 2.16
GUUAACGGUCAUAGGCCACGGAAACUAGGAGCACCAUUUCGCUGCCAGUGGAGAAAUGAACAAAGAAAAUCUGGGCCAGGCAGGCAUCAAAAGAAAUAGUCUUGCGCUCAACCAGAAAGUCUGUAAUCAUUUUAAGGGUA [U19C A51G] | 0.51
GUUAACGGUCAUAGGCCAAGGAAACUAGGAGCACCAUUUCGCUGCCAGUGAAGAAAUGAACAAAGAAAAUCUGGGCCAGGCAGGCAUCAAAAGAAAUAGUCUUGCGCUCAACCAGAAAGUCUGUAAUCACUUUAAGGGUA [U19A U130C] | 0.95
GUUAACGGUCAUAGGCCAAGGAAACUAGGAGCACCAUUUCGCUGCCAGUGAAAAAAUGAACAAAGAAAAUCUGGGCCAGGCAGGCAUCAAAAGAAAUAGUCUUGCGCUCAACCAGAAAGUCUGUAAUCAUUUUAAGGGUA [U19A G53A] | 1.39
GUUAACGGUCAUAGGCCAAGGAAACUAGGAGCACCAUUUCGCUGCCAGUGAAGAAAUGAACAAAGAAAAUCUGGGCCAGGCAGGCAUCAAAAGAAAUAGUCUUGCGCUCAACCGGAAAGUCUGUAAUCAUUUUAAGGGUA [U19A A114G] | 0.55
GUUAACGGUCAUAGGCCAAGGAAACUAGGAGCACCAUUUCGCUGCCAGUGAAGAAAUGAACAAAGAAAAUCUGGGCCAGGCAGGCAUCAAAAGAAAUAGUCUUGCGCUCAACCUGAAAGUCUGUAAUCAUUUUAAGGGUA [U19A A114U] | 0.04

Variant | self-cleavage
GUUAACGGUCAUAGGCCAAGGAAACUAGGAGCACCAUUUCGCUGCCAGUGAAGAAAUGAACAAAGAAAAUCUGGGCCAGGCAGGCAUCAAAAGAAAUAGUCUUGCGCUCAACCAGCAAGUCUGUAAUCAUUUUAAGGGUA [U19A A116C] | 0.09
GUUAACGGUCAUAGGCCAAGGAAACUAGGAGCACCAUUUCGCUGCCAGUGAAGAAAUGAACAAAGAAAAUCUGGGCCAGGCAGGCAUCAAAAGAAAUAGUCUUGCGCUCAACCAGUAAGUCUGUAAUCAUUUUAAGGGUA [U19A A116U] | 0.43
GUUAACGGUCAUAGGCCAAGGAAACUAGGAGCACCAUUUCGCUGCCAGUGAAGAAAUGAACAAAGAAAAUCUGGGCCAGGCAGGCAUCAAAAGAAAUAGUCCUGCGCUCAACCAGAAAGUCUGUAAUCAUUUUAAGGGUA [U19A U102C] | 1.65
GUUAACGGUCAUAGGCCAAGGAAACUAGGAGCACCAUUUCGCUGCCAGUGAAGAAAUGAACAAAGAAAAUCUGGGCCAGGCAGGCAUCAAAAGAAAUAGUCUUGCGCUCAACCAGAAAGUCUGUAGUCAUUUUAAGGGUA [U19A A126G] | 1.38
GUUAACGGUCAUAGGCCAAGGAAACUAGGAGCACCAUUUCGCUGCCAGUGAAGAAAUGAACAAAGAAAAUCUGGGCCAGGCAGGCAUCAAAAGAAAUAGUCUUGCGCUCAACCAGAAAGUCUGUACUCAUUUUAAGGGUA [U19A A126C] | 0.55
GUUAACGGUCAUAGGCCAAGGAAACUAGGAGCACCAUUUCGCUGCCAGUGAAGAAAUGAACAAAGAAAAUCUGGGCCAGGCAGGCAUCAAAAGAAAUAGUCUUGCGCUCAACCAGAAGGUCUGUAAUCAUUUUAAGGGUA [U19A A118G] | 0.88
GUUAACGGUCAUAGGCCACGGAAACUAGGAGCACCAUUUCGCUGCCAGUGAUGAAAUGAACAAAGAAAAUCUGGGCCAGGCAGGCAUCAAAAGAAAUAGUCUUGCGCUCAACCAGAAAGUCUGUAAUCAUUUUAAGGGUA [U19C A52U] | 0.93
GUUAACGGUCAUAGGCCAAGGAAACUAGGAGCACCAUUUCGCUGCCAGUGAAGAAAUGAACAAAGAAAAUCUGGGCCAGGCAGGCAUCAAAAGAAAUAGUCUUGCGCUCAACCAGAAAGUCCGUAAUCAUUUUAAGGGUA [U19A U122C] | 0.71
GUUAACGGUCAUAGGCCAAGGAAACUAGGAGCACCAUUUCGCUGCCAGUGAAGAAAUGAACAAAGAAAAUCUGGGCCAGGCAGGCAUCAAAAGAAAUAGUCUUGCGCUCAACCAGAAAGUCUGUAAUCAUUUCAAGGGUA [U19A U133C] | 1.73
GUUAACGGUCAUAGGCCAAGGAAACUAGGAGCACCAUUUCGCUGCCAGUGAAGAAAUGAACAAAGAAAAUCUGGGCUAGGCAGGCAUCAAAAGAAAUAGUCUUGCGCUCAACCAGAAAGUCUGUAAUCAUUUUAAGGGUA [U19A C77U] | 1.25
GUUAACGGUCAUAGGCCAAGGAAACUAGGAGCACCAUUUCGCUGCCAGUGAAGAAAUGAACAAAGAAAAUCUGGGCCAGGCAGGCAUCAAAAGAAAUAGUCUUGCGCUCAACCAGAAAGGCUGUAAUCAUUUUAAGGGUA [U19A U120G] | 1.35
GUUAACGGUCAUAGGCCACGGAAACUAGGAGCGCCAUUUCGCUGCCAGUGAAGAAAUGAACAAAGAAAAUCUGGGCCAGGCAGGCAUCAAAAGAAAUAGUCUUGCGCUCAACCAGAAAGUCUGUAAUCAUUUUAAGGGUA [U19C A33G] | 0.62
GUUAACGGUCAUAGGCCAAGGAAACCAGGAGCACCAUUUCGCUGCCAGUGAAGAAAUGAACAAAGAAAAUCUGGGCCAGGCAGGCAUCAAAAGAAAUAGUCUUGCGCUCAACCAGAAAGUCUGUAAUCAUUUUAAGGGUA [U19A U26C] | 2.12
GUUAACGGUCAUAGGCCAAGGAAACUAGGAGCACCAUUUCGCUGCCAGUGAAGAAAUGAACAAAGAAAAUCUGGGCCAGGCAGGCACCAAAAGAAAUAGUCUUGCGCUCAACCAGAAAGUCUGUAAUCAUUUUAAGGGUA [U19A U87C] | 0.97
GUUAACGGUCAUAGGCCAAGGAAACUAGGAGCACCAUUUCGCUGCCAGUGAAGAAAUGAACAAAGAAAAUCUGGGCCAGGCAGGCAUCAAAAGAAAUAGUCUUGCGCUCAACCAGAAAGUCUGCAAUCAUUUUAAGGGUA [U19A U124C] | 0.9
GUUAACGGUCAUAGGCCACGGAAACUAGGAGCACCAUUUCGCUGCCAGUGAAGAAAUGAACAAAGAAAAUCUGGGCCAGGCAGGCAUCAAAAGAAAUAGUCUUGCGCUCAACCAGAAAGUCUGUAAUCAUUUUAAGGGUA [U19C] | 1.17
GUUAACGGUCAUAGGCCAAGGAAACUAGGAGCACCAUUUCGCUGCCAGUGAAGAAAUGAACAAAGAAAAUCUGGGCCAGGCAGGCAUCAAAAGAAAUAGUCUUGCGCUCAACCAGAAAGUCUGUAAUCAUUUUAAGUGUA [U19A G137U] | 1.52
GUUAACGGUCAUAGGCCACGGGAACUAGGAGCACCAUUUCGCUGCCAGUGAAGAAAUGAACAAAGAAAAUCUGGGCCAGGCAGGCAUCAAAAGAAAUAGUCUUGCGCUCAACCAGAAAGUCUGUAAUCAUUUUAAGGGUA [U19C A22G] | 1.12
GUUAACGGUCAUAGGCCACGGUAACUAGGAGCACCAUUUCGCUGCCAGUGAAGAAAUGAACAAAGAAAAUCUGGGCCAGGCAGGCAUCAAAAGAAAUAGUCUUGCGCUCAACCAGAAAGUCUGUAAUCAUUUUAAGGGUA [U19C A22U] | 1.23
GUUAACGGUCAUAGGCCAAGGAAACUAGGAGCACCAUUUCGCUGCCAGUGAAGAAAUGAACAAAGAAAAUCUGGCCCAGGCAGGCAUCAAAAGAAAUAGUCUUGCGCUCAACCAGAAAGUCUGUAAUCAUUUUAAGGGUA [U19A G75C] | 0.16
